The test system of this series is MS2 coat protein. Put plainly: apparent KD of MS2 coat protein; designed switch direction (-1 OFF switch, 1 ON switch): -1; higher = weaker reporter binding. A digest of the protocol:
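RNA switches sharing common flanks were transcribed by stalled E. coli RNA polymerase on Illumina chips. A doubling series of SNAP-549-labelled MS2 coat protein, from 0.7 or 1.5 nM to 3 µM, was applied in Tris-HCl pH 7.5 buffer with KCl, MgCl2, BSA, DTT, tRNA and Tween-20. Each step lasted 0.8–1.5 h at the bottom of the series and 10–20 min at the top. Normalised cluster fluorescence was curve-fitted, giving apparent KD as the per-design median over clusters.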

Setting [1] is: Eterna round: R95, input ligand: FMN 200 uM.
Setting [2] is: Eterna round: R95, input ligand: microRNA oligo, concentration not stated.
The mark [3] stands for this setting: Eterna round: R95, input ligand: none.
Setting [4] is: input ligand: microRNA oligo, concentration not stated.

These results are taken from the supplement of paper PMC9170038.

On to “CUAGUAUAUCAGGAUAUGAUAUUGUGUAGUAAAUCAGAAGGGAUGACAUGAGGAUCACCCAUGUUAAGGGAUGA [JR_Ex6_Sub047] (Eterna round: R97, puzzle: Exclusion 6)”, for which the “apparent KD of MS2 coat protein” value worked out at 41.4 nM (input ligand: FMN 200 uM) and 54.3 nM (input ligand: none).
Take “UUUUUCGGACAAGCUACGUACAUGAGGAUCACCCAUGUCGGUAGAUUUGAGUAGGUUUGGAUGGAAGCUCGUCUUAU [JR_SV3TOV1_Sub084] (puzzle: Sensor v3, turn-off variant 1)”: the “apparent KD of MS2 coat protein” value amounted to 40.9 nM under setting [1], 53.5 nM under setting [2] and 53.2 nM under setting [3].
Regarding “GGAUAUAAGUCAGGAUAUGAGCGCAACUGACGAUCAGAAGGGACACAUGAGGAUCACCCAUGUGAUCUAUCAAUAUUAUACAUG [Prohibition 93 - Jieux - Exclusion NG 1] (Eterna round: R96, puzzle: Exclusion NG 1)”, the “apparent KD of MS2 coat protein” value is, setting by setting: (input ligand: FMN 200 uM) 29.1 nM; under setting [4], 19 nM; (input ligand: none) 22.4 nM.
“CAAAACCUAGGAUAUACAUGAGGAUCACCCAUGUCGGGCCUACGCUAAACGCGCCUCAGUAGAAGGAGGGAAAC [Usasoon] (puzzle: Exclusion 3)”: the “apparent KD of MS2 coat protein” value worked out at 135 nM under setting [1], 52.6 nM under setting [2] and 63.2 nM under setting [3].
The matching figures for “GAAAAGGUAGGAUAUACGAAAAAAAAGGUUAGAAAAAAAACACAUGAGGAUCACCCAUGUAGAAGGACCAAAAG [salish99_ex2_r3_067] (puzzle: Exclusion 2)”: 17.4 nM, 21.8 nM and 17.8 nM.
In the case of “UCGCUCCGUGUAGGAUAUCGCCGUACUAUACGGCGAGAAGGACAUGAGGAUCACCCAUGUAUGUUAUUAUCACGCGUGGCGCAA [Design 60] (Eterna round: R96, puzzle: Exclusion NG 1)”, the “apparent KD of MS2 coat protein” value (input ligand: FMN 200 uM) was 21 nM, the “apparent KD of MS2 coat protein” value under setting [4] turned out to be 11.5 nM and the “apparent KD of MS2 coat protein” value (input ligand: none) turned out to be 22.2 nM.
With “AGAUCACAUGAGGAUCACCCAUGUGAGGAUAUAGAUUCAAGAGCUUCGGCUCUAAAGUCUAGAAGGCACUAUGA [EX1 #47] (Eterna round: R97, puzzle: Exclusion 1)”, the “apparent KD of MS2 coat protein” value (input ligand: FMN 200 uM) is 29.1 nM and the “apparent KD of MS2 coat protein” value (input ligand: none) worked out at 25.4 nM.
“UAGAAAGGUAAGGAUAUCCAUGUGAAAUAAAGAGGAGAAGGUACCACAUGAGGAUCACCCAUGUGGCUCUCAAA [jl-ex6-4.54 Nando mod] (Eterna round: R97, puzzle: Exclusion 6)”: the “apparent KD of MS2 coat protein” value is, setting by setting: (input ligand: FMN 200 uM) 13.8 nM; (input ligand: none) 14.7 nM.
With “GGUAUACAUGAGGAUCACCCAUGUCAGGAUAUGUAUGCAUAUGCCGAAAGGCAUAUGCUCAGAAGGGACUAUAU [AK-MS2ROC-r4-exclusion1-4.0] (Eterna round: R97, puzzle: Exclusion 1)”, the “apparent KD of MS2 coat protein” value worked out at 42.4 nM (input ligand: FMN 200 uM) and 32 nM (input ligand: none).
For the sequence “UGUAACCUAGGAUAUACAUGAGGAUCACCCAUGUAAUGUAGUAUAGUGUGUGUGAGGUGUAGAAGGUGGGAUGU (Eterna round: R97, puzzle: Exclusion 3)”, the “apparent KD of MS2 coat protein” value runs as follows: (input ligand: FMN 200 uM) 60.4 nM; (input ligand: none) 60.2 nM.
With “GUAGAGUCAGGAUAUACGAGAUCGAAAGAUCGGCGAUCCAUACAUGAGGAUCACCCAUGUAGAAGGGACUCUAC [ChP 11-04-2015 #5] (puzzle: Exclusion 2)”, under setting [2], the “apparent KD of MS2 coat protein” value was determined as 14.2 nM.
With “AGUUGGCGAGGAUAUACAUGAGGAUCACCCAUGUGAAAUAGAAGAGUGAGGAAGAAAAGUAGAAGGCGCUGACA [Mat - Exclusion 3 - Mod of Salish D40] (puzzle: Exclusion 3)”, the “apparent KD of MS2 coat protein” value runs as follows: under setting [1], 134 nM; under setting [2], 69 nM; under setting [3], 107 nM.
In the case of “UUCGUGCUGCUUUGCUGUACGAGUACAUGAGGAUCACCCAUGUAGGAUAUGGUACGCUUUGCGUGCUAGAAGGAUAUGUGUUGC [salish99_ExNG3_r04_506] (Eterna round: R96, puzzle: Exclusion NG 3)”, the “apparent KD of MS2 coat protein” value (input ligand: FMN 200 uM) turned out to be 24.6 nM, the “apparent KD of MS2 coat protein” value under setting [4] was determined as 16.9 nM and the “apparent KD of MS2 coat protein” value (input ligand: none) came out at 24 nM.
With “UCAAGUCCAUAGGAUAUCGACCAGUCCUCUGGAUGAGAAGGAUGAACUUGAGGAUCACCCAAGUGGCCGAAUAA [Aesin] (Eterna round: R97, puzzle: Exclusion 6)”, the “apparent KD of MS2 coat protein” value (input ligand: FMN 200 uM) was 152 nM and the “apparent KD of MS2 coat protein” value (input ligand: none) is 46.3 nM.
On to “AAUAGUCGGUAGGAUAUCCACGGAUGACCGGCAGGAGAAGGGCCGACUUGAGGAUCACCCAAGUAUGGUCCAAC [Ortiqumate] (Eterna round: R97, puzzle: Exclusion 6)”, for which the “apparent KD of MS2 coat protein” value by setting is: (input ligand: FMN 200 uM) 25.1 nM; (input ligand: none) 13.9 nM.
Turning to “CAGUACUGAGGAUAUACAUGAGGAUCACCCAUGUGUUCCAGCUAGGAAACUAGCAAAGGUAGAAGGCAGUACUG [salish99_ex3_r3_065] (Eterna round: R96, puzzle: Exclusion 3)”, the “apparent KD of MS2 coat protein” value under setting [4] was found to be 23.2 nM.
On to “UGCAGACGAGGAUAUAAACGAUAUAACAUGAGGAUCACCCAUGUACGAUCGAAUGAUCGUUUAGAAGGCGUCUGCU [E5/10-A3] (Eterna round: R97, puzzle: Exclusion 5)”, for which the “apparent KD of MS2 coat protein” value came out at 16.1 nM (input ligand: FMN 200 uM) and 16.2 nM (input ligand: none).
With “CCAGGCGUCUUUGCUCGUCUUAUUUGGAGAUGACUGUUAACAUGAGGAUCACCCAUGUGUGUGGGAGCGUUGCAGUC [JR_SV3TOV2_Sub021] (puzzle: Sensor v3, turn-off variant 2)”, the “apparent KD of MS2 coat protein” value by setting is: under setting [1], 580 nM; under setting [2], 431 nM; under setting [3], 885 nM.
On to “AGUACUAACACGAGAGUGUUAGUACAAUAAGCUUGUGUUACAUGAGGAUCACCCAUGUCCUCAUAAGCUCGUCUUAA [Mat - Sensor v3 - Turn-off var 2 - D58] (puzzle: Sensor v3, turn-off variant 2)”, for which the “apparent KD of MS2 coat protein” value is 41.3 nM under setting [1], 727 nM under setting [2] and 42.5 nM under setting [3].
Take “AGAGUGUGAGGAUAUAUGGUGAAGAUGAAGGGAUAGAAGGAGUAGAAGGUACAUGAGGAUCACCCAUGUUAGGA [JR_Exclu4_Sub076] (puzzle: Exclusion 4)”: the “apparent KD of MS2 coat protein” value under setting [2] was determined as 23.1 nM.
For the sequence “ACAGACCGUGUUAGGAUAUUAUUUUACUCAAGUAGUGAGAAGGGACAUGAGGAUCACCCAUGUGUGGGAGUUGA [Eternabot (L2) Solution 42] (Eterna round: R97, puzzle: Brourd's mod of Exclusion 4)”, the “apparent KD of MS2 coat protein” value reads like this: (input ligand: FMN 200 uM) 83 nM; (input ligand: none) 87 nM.
Consider “CAGCGUUCAGGAUAUACAUGAGGAUCACCCAUGUGUUCCAGCUAGGAAACUAGCAAAUGUAGAAGGGAACGCUG [Mat - Exclusion 3 - JL Mod - D1] (Eterna round: R97, puzzle: Exclusion 3)”, for which the “apparent KD of MS2 coat protein” value reads like this: (input ligand: FMN 200 uM) 463 nM; (input ligand: none) 125 nM.
Turning to “CAUGAUUGACGAGGAUAUUGUUCUACAUGGCGACGAGAAGGCGUCUGUCACAUGAGGAUCACCCAUGUGAGUCUGGUGAAUGAG [Ex NG1 #83] (Eterna round: R96, puzzle: Exclusion NG 1)”, the “apparent KD of MS2 coat protein” value under setting [4] came out at 25.7 nM.
For “GUGAAACAUGAGGAUCACCCAUGUGAGGAUAUGUUUUAGUACUGGAGACAGUACAUCUAUAGAAGGCACAAUGG [Mat - Mod of JL D75] (puzzle: Exclusion 1)”, under setting [2], the “apparent KD of MS2 coat protein” value amounted to 54.7 nM.
